Reference: patent US20190202914A1

Target: cynoCTLA-4-his protein (CT4-05227, AcroBio) (cyno) (UniProt G7PL88)
Assay: SPR, Biacore T200, antibody immobilised, CTLA-4-his injected, 1:1 model

Row | Binder | Kd | koff | kon
1 | CL5′-dPTM′ (antibody, human IgG1, V domains shown) VH: EVQLVESGGGLIQPGGSLRLSCAVSGFTVSKNYMSWVRQAPGKGLEWVSVVYSGGSKTYADSVKGRFTISRDNSKNTLYLQMNSLRAEDTAVYYCARAVPHSPSSFDIWGQGTMVTVSS | 0.0591 nM | 0.000308 s⁻¹ | 5.21e+06 M⁻¹ s⁻¹
2 | CL5′-eA-dPTM′ (antibody, human IgG1, V domains shown) VH: EVQLVESGGGLIQPGGSLRLSCAVSGFTVSKNYMSWVRQAPGKGLEWVSVVYSGGSKTYADSVKGRFTISRDNSKNTLYLQMNSLRAEDTAVYYCARAVPHSPSSFDIWGQGTMVTVSS | 0.0243 nM | 0.00011 s⁻¹ | 4.55e+06 M⁻¹ s⁻¹
